Target: human PD-L1 expressed on cell surface (human) (UniProt Q9NZQ7)
Experiment: cell-based or functional assay

Chain of human PD-L1 expressed on cell surface (human) (Q9NZQ7 19-290 limits assumed): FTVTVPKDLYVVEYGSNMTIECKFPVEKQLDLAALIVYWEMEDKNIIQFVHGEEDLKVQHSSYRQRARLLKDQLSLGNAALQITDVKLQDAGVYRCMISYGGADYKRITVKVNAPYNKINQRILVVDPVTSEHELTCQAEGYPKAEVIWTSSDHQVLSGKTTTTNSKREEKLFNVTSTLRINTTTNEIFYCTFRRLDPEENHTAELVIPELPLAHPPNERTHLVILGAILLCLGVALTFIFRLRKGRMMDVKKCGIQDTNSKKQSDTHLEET

IC50 (nM), Promega PD-1/PD-L1 blockade reporter assay, another assay [nM] | Substance
0.33 | Atezolizumab analogue (BioIntron) (antibody)
0.68 | SGN-PD-L1 analogue anti-PD-L1 antibody (BioIntron)

From patent US20250171542A1
